T1: PHA.L, lectin from Phaseolus vulgaris (Phaseolus vulgaris, UniProt P05087 21-272)
T1 construct: Lectin coated on the plate
T1 sequence (looked up): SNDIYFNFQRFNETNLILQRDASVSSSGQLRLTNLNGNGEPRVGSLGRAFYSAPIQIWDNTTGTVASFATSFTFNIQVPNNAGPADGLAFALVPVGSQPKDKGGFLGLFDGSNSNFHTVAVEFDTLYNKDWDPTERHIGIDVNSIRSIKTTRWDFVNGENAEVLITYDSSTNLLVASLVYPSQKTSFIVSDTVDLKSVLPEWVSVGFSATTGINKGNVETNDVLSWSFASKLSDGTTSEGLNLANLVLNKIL

T2: UEA.I, lectin from Ulex europeus (Ulex europeus, UniProt P22972 1-243)
T2 construct: Lectin coated on the plate
T2 sequence (looked up): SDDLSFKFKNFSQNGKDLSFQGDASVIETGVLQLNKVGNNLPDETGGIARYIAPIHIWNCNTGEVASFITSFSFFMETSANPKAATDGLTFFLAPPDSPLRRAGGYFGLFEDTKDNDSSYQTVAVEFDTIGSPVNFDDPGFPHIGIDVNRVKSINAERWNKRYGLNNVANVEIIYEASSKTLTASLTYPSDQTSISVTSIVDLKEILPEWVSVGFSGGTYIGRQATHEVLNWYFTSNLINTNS

B1: purified CHO-derived recombinant human IL-7 (highly glycosylated / hyperglycosylated hIL-7) (ligand)
chain: DCDIEGKDGKQYESVLMVSIDQLLDSMKEIGSNCLNNEFNFFKRHICDANKEGMFLFRAARKLRQFLKMNSTGDFDLHLLKVSEGTTILLNCTGQVKGRKPAALGEAQPTKSLEENKSLKEQKKLNDLCFLKRLLQEIKTCWNKILMGTKEH
modifications: complex N-linked oligosaccharides at Asn 70, 91 and 116; O-glycan at Thr 110; batch is a mixture of fully and partially glycosylated proteins
notes: also called CHO-derived hIL-7; purified IL-7 protein

What was measured:
Experiment in all cases: lectin-coated plate ELISA; bound IL-7 shown by biotinylated anti-hIL-7 antibody and streptavidin-peroxidase
[1] = target: T1, PHA.L, lectin from Phaseolus vulgaris
Experimental: (§1) An array of lectins having affinity for N- and O-glycan structures was selected and used to coat 96 well microplates. Identical amounts of recombinant purified IL-7 preparations were incubated into lectin coated microplate wells. During this step, according to the affinity of a given lectin to the glycan decoration of IL-7, different amount of IL-7 were kept bound to the lectin. Revelation was conducted by incubating an IL-7 specific antibody coupled to Biotin.
(§2) Eight different lectins were used to characterize the IL-7 purified samples. Each lectin specifically recognizes sugar moieties.

[2] = target: T2, UEA.I, lectin from Ulex europeus
Experimental: as §1, §2

[3] = target: B1
Experimental: as §1, §2

Row | Binder | binding result [1] | binding result [2] | binding result [3]
1 | B1 | binds | binds | –
2 | ABA, lectin from Agaricus bisporus (other, UniProt Q00022 2-143, looked up, Lectin coated on the plate) TYTISIRVYQTTPKGFFRPVERTNWKYANGGTWDEVRGEYVLTMGGSGTSGSLRFVSSDTDESFVATFGVHNYKRWCDIVTNLTNEQTALVINQEYYGVPIRDQARENQLTSYNVANAKGRRFAIEYTVTEGDNLKANLIIG | – | – | binds
